Assay results taken from patent publication US20250320288A1, “METHOD OF TREATING VITILIGO WITH INTERFERON-GAMMA ANTIBODY” (Elixiron Immunotherapeutics (Hong Kong), priority 2022, published 2025).
Entries after “also recorded” stand apart in the source; their conditions may differ.

Tests used:
melanocytes [1] = experiment: Intracellular ROS in melanocytes (CM-H2DCFDA); assay type: cell-based, human; details: melanocytes
Method: Materials and methods: For intracellular ROS measurement, melanocytes were washed with PBS and incubated with 20 μM CM-H2DCFDA (Invitrogen) for 30 min at 37° C. in the dark. The cells were resuspended with PBS and examined with flow cytometry at an excitation wavelength of 488 nm and an emission wavelength of 530 nm; the data were analyzed with FlowJo.

melanocytes [2] = experiment: Melanocyte apoptosis, Annexin V / 7AAD flow cytometry; assay type: cell-based, human; details: 2A6Q 10 μg/mL
Method: Materials and methods: Melanocyte cell apoptosis was detected with Annexin V (BD, 550474) and 7AAD (1 mg/mL, Sigma A9400-1 MG). The cells were detached and resuspended with […] binding buffer (BD, 556454) containing Annexin V and 7AAD for 15 min at room temperature in the dark. Before analysis, cells were added to a […] binding buffer and immediately analyzed a on a flow cytometer (Verse BD).

[3] = 4-week repeated intravenous infusion GLP toxicology of EI-001; assay type: in vivo
Method: Materials and methods: A total of forty Cynomolgus monkeys (20 females and 20 males) were assigned into 4 groups with 5 animals/gender/group and given EI-001 (2A6Q) (10, 30 and 100 mg/kg) or vehicle (Formulation Buffer) in a volume of 10 mL/kg via 30-min intravenous infusion, once weekly for a total of 5 doses, followed by a 6-week recovery phase. All animals were scheduled to be necropsied at the end of main phase (on Day 30) and at the end of recovery phase (on Day 72). During the study, the following parameters were evaluated: clinical observations, ophthalmology, body weight, food consumption, body temperature (rectal temperature), clinical pathology (hematology, coagulation, plasma chemistry, lymphocyte immunophenotype and urinalysis), gross pathology, organ weight and histopathology. toxicokinetics, immunogenicity, local irritation assessment, cardiovascular (ECG, body surface temperature, blood pressure), respiratory and central nervous system safety pharmacology assessments were conducted concurrently. […] The immunogenicity samples were collected on pre-dose on Days 1, 15, 22, and Days 57, 71.

B1: EI-001: human monoclonal anti-IFN-γ neutralizing antibody; VH SEQ ID NO: 165, VL SEQ ID NO: 113; N76Q removes VH glycosylation site (antibody, listed as Homo sapiens, V domains shown)
VH: EVQLVESGGGLVKPGDSLTVSCVASGFTFSNYFIHWVRQAPGKGLEWVATISGRTKYMFYSDSLRGRFTVSRDNAQNSVYLHMSSLRGEDTALYYCVRGYDHSDSNSAADLLHWGRGTLVTVSS
VL: NFMLTQPLSVSGYPGKTIVISCVRSSGSVASHYVQWFQQRPGSAPAMVIYEDSHRPSGIPDRFSGSVDASSNSASLTISGLKTEDEADYFCQSYYGNNQVLFGGGTKLTVL
modifications: Recombinant variant antibody sequence
notes: human monoclonal anti-IFN-γ neutralizing antibody; N76Q removes VH glycosylation site
Which “reversal of IFN-γ induced ROS / cellular oxidative stress” value (melanocytes [1]) does the source give for B1 here?
Its value is “reverses the ROS”.

What about the “reversal of IFN-γ induced early phase apoptosis” value (melanocytes [2]) of the same molecule?
The value was “managed to reverse the apoptosis; also recorded: reverses”.

What about the “survival of treated animals” value ([3]; 10, 30 and 100 mg/kg once weekly) of the same molecule?
The value was “survived to their scheduled necropsy”.

What about the “tolerability after repeated intravenous infusion for 4 weeks” value ([3]; 10, 30 and 100 mg/kg once weekly, 5 doses) of the same molecule?
Its value is “well-tolerated”.

And the “mortality rates or susceptibility to infections among the treated monkeys” value ([3]; compared to prior NI-0501 toxicology studies)?
The value was “did not increase”.

And the “drug adverse events in in vivo toxicology” value ([3]; cynomolgus monkey, in vivo)?
Its value is “does not cause any significant drug adverse events”.

And the “observable symptoms of infection” value ([3]; cynomolgus monkey, in vivo)?
The value was “did not induce”.

What about the “only detected changes related to administration” value ([3]; cynomolgus monkey, in vivo) of the same molecule?
Its value is “seen on a microscopic level”.
